Experimental data: PMC11343135

Columns and labels:
[1] = tested on: SARS2-N/M (SUD-N/M) (SARS-CoV-2 (WA1)); assay: zone-interference gel electrophoresis
[2] = tested on: SARS1-N/M (SUD-N/M) (SARS-CoV); assay: zone-interference gel electrophoresis

BCL2 G4 quadruplex oligonucleotide
Kd [1]: 4.1 µM | Kd [2]: 1.6 µM
